Measured values published in publication PMC6488296.

Key:
[1] = target: GFP-PIF^S-TCR (moxGFP-noF-PIF^S-TCRβ) (Aequorea victoria | A. thaliana | human) (UniProt Q8L5W7)
[2] = target: GFP-PIF^S-TCR (moxGFP-noF-PIF^S-TCRβ) (Aequorea victoria | A. thaliana | human) (UniProt Q8L5W7); remark: listed apart in the source
[3] = target: GFP-PIF^S-TCR (moxGFP-noF-PIF^S-TCRβ) (Aequorea victoria | A. thaliana | human) (UniProt Q8L5W7); assay: flow cytometry on cells + other: calcium influx (Indo-1), fit of a mathematical model; same fit as a6; half-life ln2/(koff+ki) under continuous 660 nm light, at the high end of the range of light intensities used
[4] = target: GFP-PIF^S-TCR (moxGFP-noF-PIF^S-TCRβ) (Aequorea victoria | A. thaliana | human) (UniProt Q8L5W7); assay: flow cytometry on cells + other: calcium influx (Indo-1), fit of a mathematical model; surface-bound DyLight650-PhyBt on GFP-PIF^S-TCR cells (90 s, 37 C, different PhyBt concentrations and continuous 660 nm intensities) and all calcium data fitted together by maximum likelihood; PhyBt modelled as dimers, off-rates of both steps set equal; parameters are for darkness

PhyB tetramers (fluorescently labeled streptavidin-based tetramers of PhyB_(1-651)-Avitag-His6), sequence (P14713 1-651): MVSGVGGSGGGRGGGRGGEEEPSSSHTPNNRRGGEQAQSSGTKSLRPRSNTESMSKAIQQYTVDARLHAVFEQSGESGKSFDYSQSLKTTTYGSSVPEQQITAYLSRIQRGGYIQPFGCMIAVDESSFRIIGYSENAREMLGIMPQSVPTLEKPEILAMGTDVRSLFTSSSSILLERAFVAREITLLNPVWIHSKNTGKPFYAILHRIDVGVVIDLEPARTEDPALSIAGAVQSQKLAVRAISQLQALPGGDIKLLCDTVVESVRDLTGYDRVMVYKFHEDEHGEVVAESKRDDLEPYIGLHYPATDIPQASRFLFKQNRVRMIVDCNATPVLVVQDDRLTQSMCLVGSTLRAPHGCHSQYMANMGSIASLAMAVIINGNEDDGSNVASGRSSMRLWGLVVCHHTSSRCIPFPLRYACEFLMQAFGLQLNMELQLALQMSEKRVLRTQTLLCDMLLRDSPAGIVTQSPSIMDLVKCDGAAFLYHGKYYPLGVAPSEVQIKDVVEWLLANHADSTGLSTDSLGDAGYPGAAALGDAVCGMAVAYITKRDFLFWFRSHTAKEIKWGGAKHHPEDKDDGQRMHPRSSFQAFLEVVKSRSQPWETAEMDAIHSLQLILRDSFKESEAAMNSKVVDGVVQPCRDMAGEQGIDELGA
PhyB tetramers (fluorescently labeled streptavidin-based tetramers of PhyB_(1-651)-Avitag-His6), sequence (P22629 25-183): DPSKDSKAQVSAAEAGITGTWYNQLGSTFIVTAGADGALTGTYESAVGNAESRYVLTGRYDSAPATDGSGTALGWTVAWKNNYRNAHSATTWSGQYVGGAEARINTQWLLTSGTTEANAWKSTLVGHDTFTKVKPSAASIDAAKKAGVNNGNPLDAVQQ

With “PhyB tetramers (fluorescently labeled streptavidin-based tetramers of PhyB_(1-651)-Avitag-His6) (from UniProt P14713 1-651; P22629 25-183) (complex)” the calcium influx under continuous 660 nm light of different intensities (dark to 32%) and different PhyBt concentrations; intensity threshold for a calcium response (% 660 nm intensity) [1] was 3, the ongoing calcium response evoked by PhyBt(660) in the dark, then continuous 660 nm light of 2% to 32% intensity; intensity threshold to maintain the response (% 660 nm intensity) [2] was 3 and the half-life of the PhyB ON-TCR complex, ln2/(koff+ki), under continuous 660 nm light [3] was 2 s. For the same substance, the Kd [4] was 0.022 µM, the Q = qon/qoff, association constant of multivalent binding step (darkness), dimensionless [4] was 11 and the half-life of PhyB ON-PIF-TCR complex (darkness), ln(2)/koff [4] was 40 s. For the same substance, the qon, binding rate of receptor cross-linking (second, bivalent step) [4] was 0.19 s⁻¹.
